Experimental data: the supplement of paper PMC3353916
± gives the standard deviation of the averaged measurements.

System: Sindbis virus TE/5'2J-GFP
Experiment: percent infected (GFP+ in RFP+ ISG-expressing cells); higher = more infection (less antiviral activity)
Experimental: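 Confirmatory testing of 87 ISGs. Triplicate wells of BHK/HA-Zeo (control) or BHK/NZAP-Zeo (ZAP) cells were transduced with lentiviruses co-expressing a human ISG plus TagRFP, then infected 48 h later with SINV TE/5'2J-GFP (moi 5). The % GFP+ cells among RFP+ cells was measured by flow cytometry at 8 h post infection. Fluc lentivirus served as control. Three independent experiments.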

[1] = experiment: confirmatory screen 1, BHK/HA-Zeo (control)
[2] = experiment: confirmatory screen 1, BHK/NZAP-Zeo (ZAP)
[3] = experiment: confirmatory screen 2, BHK/HA-Zeo (control)
[4] = experiment: confirmatory screen 2, BHK/NZAP-Zeo (ZAP)
[5] = experiment: confirmatory screen 3, BHK/HA-Zeo (control)
[6] = experiment: confirmatory screen 3, BHK/NZAP-Zeo (ZAP)
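Note: Interferon-defective BHK-21 derivatives, ZAP line overexpressing the rat ZAP N-terminal zinc finger domain fused to Zeocin resistance, GFP scored within live singlet TagRFP+ cells.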

Row | Sequence | percent infected [1] | percent infected [2] | percent infected [3] | percent infected [4] | percent infected [5] | percent infected [6]
1 | MERISAFFSSIWDTILTKHQEGIYNTICLGVLLGLPLLVIITLLFICCHCCWSPPGKRGQQPEKNKKKKKKKKKKDEEDLWISAQPKLLQMEKRPSLPV [KIAA0040] | 93.9 ± 2.6% | 62.7 ± 0.84% | 96.75 ± 0.12% | 95.133 ± 0.042% | 87.2 ± 1.7% | 87.8 ± 1.6%
2 | MEVTTRLTWNDENHLRKLLGNVSLSLLYKSSVHGGSIEDMVERCSRQGCTITMAYIDYNMIVAFMLGNYINLHESSTEPNDSLWFSLQKKNDTTEIETLLLNTAPKIIDEQLVCRLSKTDIFIICRDNKIYLDKMITRNLKLRFYGHRQYLECEVFRVEGIKDNLDDIKRIIKAREHRNRLLADIRDYRPYADLVSEIRILLVGPVGSGKSSFFNSVKSIFHGHVTGQAVVGSDITSITERYRIYSVKDGKNGKSLPFMLCDTMGLDGAEGAGLCMDDIPHILKGCMPDRYQFNSRKPITPEHSTFITSPSLKDRIHCVAYVLDINSIDNLYSKMLAKVKQVHKEVLNCGIAYVALLTKVDDCSEVLQDNFLNMSRSMTSQSRVMNVHKMLGIPISNILMVGNYASDLELDPMKDILILSALRQMLRAADDFLEDLPLEETGAIERALQPCI [IFI44L] | 94.86 ± 0.39% | 67.5 ± 2.4% | 96.87 ± 0.21% | 94.83 ± 0.34% | 83.6 ± 1.6% | 85.31 ± 0.85%
3 | MFAKGKGSAVPSDGQAREKLALYVYEYLLHVGAQKSAQTFLSEIRWEKNITLGEPPGFLHSWWCVFWDLYCAAPERRDTCEHSSEAKAFHDYSAAAAPSPVLGNIPPNDGMPGGPIPPGFFQGPPGSQPSPHAQPPPHNPSSMMGPHSQPFMSPRYAGGPRPPIRMGNQPPGGVPGTQPLLPNSMDPTRQQGHPNMGGSMQRMNPPRGMGPMGPGPQNYGSGMRPPPNSLGPAMPGINMGPGAGRPWPNPNSANSIPYSSSSPGTYVGPPGGGGPPGTPIMPSPADSTNSSDNIYTMINPVPPGGSRSNFPMGPGSDGPMGGMGGMEPHHMNGSLGSGDIDGLPKNSPNNISGISNPPGTPRDDGELGGNFLHSFQNDNYSPSMTMSV [SSBP3] | 63.1 ± 3.4% | 3.95 ± 1.2% | 94.42 ± 0.81% | 95.08 ± 0.28% | 83.27 ± 0.48% | 54.1 ± 14%
4 | MGAQLCFEANAKAPREALRFHAEAKGAQVRLDTRGCIAHRRTTFHDGIVFSQRPVRLGERVALRVLREESGWCGGLRVGFTRLDPACVSVPSLPPFLCPDLEEQSPTWAAVLPEGCALTGDLVRFWVDRRGCLFAKVNAGCRLLLREGVPVGAPLWAVMDVYGTTKAIELLDPTASRLPTPMPWDLSNKAVPEPKATPGEECAICFYHAANTRLVPCGHTYFCRYCAWRVFSDTAKCPVCRWQIEAVAPAQGPPALRVEEGS [LINCR] | 97.12 ± 0.12% | 85 ± 1.6% | 94.5 ± 0.3% | 94.39 ± 0.54% | 91.97 ± 0.65% | 93.27 ± 0.19%
5 | MGERTLHAAVPTPGYPESESIMMAPICLVENQEEQLTVNSKALEILDKISQPVVVVAIVGLYRTGKSYLMNRLAGKRNGFPLGSTVQSETKGIWMWCVPHLSKPNHTLVLLDTEGLGDVEKSNPKNDSWIFALAVLLSSSFVYNSVSTINHQALEQLHYVTELAELIRAKSCPRPDEAEDSSEFASFFPDFIWTVRDFTLELKLDGNPITEDEYLENALKLIPGKNPKIQNSNMPRECIRHFFRKRKCFVFDRPTNDKQYLNHMDEVPEENLERHFLMQSDNFCSYIFTHAKTKTLREGIIVTGKRLGTLVVTYVDAINSGAVPCLENAVTALAQLENPAAVQRAADHYSQQMAQQLRLPTDTLQELLDVHAACEREAIAVFMEHSFKDENHEFQKKLVDTIEKKKGDFVLQNEEASAKYCQAELKRLSEHLTESILRGIFSVPGGHNLYLEEKKQVEWDYKLVPRKGVKANEVLQNFLQSQVVVEESILQSDKALTAGEKAIAAERAMKEAAEKEQELLREKQKEQQQMMEAQERSFQEYMAQMEKKLEEERENLLREHERLLKHKLKVQEEMLKEEFQKKSEQLNKEINQLKEKIESTKNEQLRLLKILDMASNIMIVTLPGASKLLGVGTKYLGSRI [GBP4] | 95 ± 2.1% | 63 ± 6% | 95.8 ± 0.54% | 95.49 ± 0.44% | 94.22 ± 0.7% | 94.93 ± 0.31%
6 | MGILYSEPICQAAYQNDFGQVWRWVKEDSSYANVQDGFNGDTPLICACRRGHVRIVSFLLRRNANVNLKNQKERTCLHYAVKKKFTFIDYLLIILLMPVLLIGYFLMVSKTKQNEALVRMLLDAGVEVNATDCYGCTALHYACEMKNQSLIPLLLEARADPTIKNKHGESSLDIARRLKFSQIELMLRKAL [ANKRD22] | 96.94 ± 0.72% | 78.5 ± 1.2% | 96.41 ± 0.47% | 95.57 ± 0.16% | 93.15 ± 0.2% | 93.16 ± 0.36%
7 | MHLCGGNGLLTQTDPKEQQRQLKKQKNRAAAQRSRQKHTDKADALHQQHESLEKDNLALRKEIQSLQAELAWWSRTLHVHERLCPMDCASCSAPGLLGCWDQAEGLLGPGPQGQHGCREQLELFQTPGSCYPAQPLSPGPQPHDSPSLLQCPLPSLSLGPAVVAEPPVQLSPSPLLFASHTGSSLQGSSSKLSALQPSLTAQTAPPQPLELEHPTRGKLGSSPDNPSSALGLARLQSREHKPALSAATWQGLVVDPSPHPLLAFPLLSSAQVHF [BATF2] | 90.1 ± 2.7% | 63.14 ± 0.42% | 95.85 ± 0.33% | 94.92 ± 0.24% | 93.14 ± 0.36% | 91.04 ± 0.55%
8 | MHQSLTQQRSSDMSLPDSMGAFNRRKRNSIYVTVTLLIVSVLILTVGLAATTRTQNVTVGGYYPGVILGFGSFLGIIGSNLIENKRQMLVASIVFISFGVIAAFCCAIVDGVFAARHIDLKPLYANRCHYVPKTSQKEAEEVISSSTKNSPSTRVMRNLTQAAREVNCPHLSREFCTPRIRGNTCFCCDLYNCGNRVEITGGYYEYIDVSSCQDIIHLYHLLWSATILNIVGLFLGIITAAVLGGFKDMNPTLPALNCSVENTHPTVSYYAHPQVASYNTYYHSPPHLPPYSAYDFQHSGVFPSSPPSGLSDEPQSASPSPSYMWSSSAPPRYSPPYYPPFEKPPPYSP [FAM70A] | 97.01 ± 0.45% | 75.9 ± 2.9% | 96.07 ± 0.48% | 95.55 ± 0.12% | 94.9 ± 0.5% | 94.05 ± 0.37%
9 | MIAAQAKLVYQLNKYYTERCQARKAAIAKTIREVCKVVSDVLKEVEVQEPRFISSLSEIDARYEGLEVISPTEFEVVLYLNQMGVFNFVDDGSLPGCAVLKLSDGRKRSMSLWVEFITASGYLSARKIRSRFQTLVAQAVDKCSYRDVVKMIADTSEVKLRIRERYVVQITPAFKCTGIWPRSAAQWPMPHIPWPGPNRVAEVKAEGFNLLSKECYSLTGKQSSAESDAWVLQFGEAENRLLMGGCRNKCLSVLKTLRDRHLELPGQPLNNYHMKTLLLYECEKHPRETDWDESCLGDRLNGILLQLISCLQCRRCPHYFLPNLDLFQGKPHSALESAAKQTWRLAREILTNPKSLDKL [MAB21L2] | 77.4 ± 7.3% | 48.7 ± 1.9% | 93.37 ± 0.82% | 93.8 ± 0.28% | 85.5 ± 3.3% | 86.9 ± 0.91%
10 | MKEDCLPSSHVPISDSKSIQKSELLGLLKTYNCYHEGKSFQLRHREEEGTLIIEGLLNIAWGLRRPIRLQMQDDREQVHLPSTSWMPRRPSCPLKEPSPQNGNITAQGPSIQPVHKAESSTDSSGPLEEAEEAPQLMRTKSDASCMSQRRPKCRAPGEAQRIRRHRFSINGHFYNHKTSVFTPAYGSVTNVRVNSTMTTLQVLTLLLNKFRVEDGPSEFALYIVHESGERTKLKDCEYPLISRILHGPCEKIARIFLMEADLGVEVPHEVAQYIKFEMPVLDSFVEKLKEEEEREIIKLTMKFQALRLTMLQRLEQLVEAK [RASSF4] | 80.1 ± 2.3% | 56.3 ± 1.3% | 94.73 ± 0.66% | 94.93 ± 0.39% | 89.1 ± 0.9% | 89.9 ± 1.3%
11 | MKKSGVLFLLGIILLVLIGVQGTPVVRKGRCSCISTNQGTIHLQSLKDLKQFAPSPSCEKIEIIATLKNGVQTCLNPDSADVKELIKKWEKQVSQKKKQKNGKKHQKKKVLKVRKSQRSRQKKTT [CXCL9] | 61.9 ± 6.1% | 44.7 ± 2.9% | 88.7 ± 2.5% | 91.55 ± 0.18% | 83.1 ± 1.5% | 82 ± 1.1%
12 | MKLRSSHNASKTLNANNMETLIECQSEGDIKEHPLLASCESEDSICQLIEVKKRKKVLSWPFLMRRLSPASDFSGALETDLKASLFDQPLSIICGDSDTLPRPIQDILTILCLKGPSTEGIFRRAANEKARKELKEELNSGDAVDLERLPVHLLAVVFKDFLRSIPRKLLSSDLFEEWMGALEMQDEEDRIEALKQVADKLPRPNLLLLKHLVYVLHLISKNSEVNRMDSSNLAICIGPNMLTLENDQSLSFEAQKDLNNKVKTLVEFLIDNCFEIFGENIPVHSSITSDDSLEHTDSSDVSTLQNDSAYDSNDPDVESNSSSGISSPSRQPQVPMATAAGLDSAGPQDAREVSPEPIVSTVARLKSSLAQPDRRYSEPSMPSSQECLESRVTNQTLTKSEGDFPVPRVGSRLESEEAEDPFPEEVFPAVQGKTKRPVDLKIKNLAPGSVLPRALVLKAFSSSSLDASSDSSPVASPSSPKRNFFSRHQSFTTKTEKGKPSREIKKHSMSFTFAPHKKVLTKNLSAGSGKSQDFTRDHVPRGVRKESQLAGRIVQENGCETHNQTARGFCLRPHALSVDDVFQGADWERPGSPPSYEEAMQGPAARLVASESQTVGSMTVGSMRARMLEAHCLLPPLPPAHHVEDSRHRGSKEPLPGHGLSPLPERWKQSRTVHASGDSLGHVSGPGRPELLPLRTVSESVQRNKRDCLVRRCSQPVFEADQFQYAKESYI [TAGAP] | 91.3 ± 3% | 64.8 ± 2.3% | 86.1 ± 4.6% | 92.53 ± 0.75% | 85 ± 2% | 89.95 ± 0.44%
13 | MKTFTWTLGVLFFLLVDTGHCRGGQFKIKKINQRRYPRATDGKEEAKKCAYTFLVPEQRITGPICVNTKGQDASTIKDMITRMDLENLKDVLSRQKREIDVLQLVVDVDGNIVNEVKLLRKESRNMNSRVTQLYMQLLHEIIRKRDNSLELSQLENKILNVTTEMLKMATRYRELEVKYASLTDLVNNQSVMITLLEEQCLRIFSRQDTHVSPPLVQVVPQHIPNSQQYTPGLLGGNEIQRDPGYPRDLMPPPDLATSPTKSPFKIPPVTFINEGPFKDCQQAKEAGHSVSGIYMIKPENSNGPMQLWCENSLDPGGWTVIQKRTDGSVNFFRNWENYKKGFGNIDGEYWLGLENIYMLSNQDNYKLLIELEDWSDKKVYAEYSSFRLEPESEFYRLRLGTYQGNAGDSMMWHNGKQFTTLDRDKDMYAGNCAHFHKGGWWYNACAHSNLNGVWYRGGHYRSKHQDGIFWAEYRGGSYSLRAVQMMIKPID [ANGPTL1] | 94.8 ± 1.7% | 76.2 ± 1.6% | 95.66 ± 0.28% | 94.3 ± 2.2% | 94.73 ± 0.38% | 94.71 ± 0.28%
